The text below walks through data of US20140286972A1.

Test [1] deals with IgE antibodies of a mixture of sera of patients allergic to P. judaica (human). Briefly: ELISA inhibition, extract on solid phase, pooled sera preincubated with inhibitor.
The target is the same in test [2]. Put plainly: ELISA inhibition, extract on solid phase, pooled sera; reference nPar j 1-Par j 2.
For test [3] the target is unchanged. Briefly: ELISA inhibition, extract on solid phase, pooled sera.
For test [4] the target is unchanged. Briefly: ELISA inhibition, extract on solid phase, pooled sera; reference Q1. (In general: ELISA stands for enzyme-linked immunosorbent assay.)

B1: chimeric protein Q3 (protein)
chain: MRGSHHHHHHGILPETCGTMVRALMPCLPFVQGKEKEPSKGLQIQTAMKTYSDIDGKLVSEVRSSKLPPIDVNMDCKTLGVVPRQPQLPVSLRHGPVTGPSDPAHKARLERPQIRVPPPAPEKAEFEEACGKVVQDIMPCLHFVKGEEKEPSKEDIIVRATKGISGIKNELVAEVPGTLPPITADFDCSKIQSTIFRGYY
Consider B1, for which the maximum degree of inhibition of IgE binding to P. judaica extract in test [1] worked out at 60%. The fold higher protein concentration than nPar j 1-Par j 2 for the same degree of inhibition in test [2] was 10000 times. For the same molecule, the reduction of allergenicity (IgE-binding) against nPar j 1-Par j 2 in test [3] turned out to be 100%.

B2: chimeric protein Q2 (protein)
chain: MRGSHHHHHHGILQETCGTMVRALMPCLPFVQGKEKEPSKGLQIQTAMKTYSDIDGKLVSEVPKHCGIVDSKLPPIDVNMDCKTLGVVPRQPQLPVSLRHGPVTGPSDPAHKARLERPQIRVPPPAPEKAEFEEACGKVVQDIMPCLHFVKGEEKEPSKEDIIVRATKGISGIKNELVAEVPKKCDIKTTLPPITADFDCSKIQSTIFRGYY
Consider B2, for which the maximum degree of inhibition of IgE binding to P. judaica extract in test [1] was determined as 60%. For the same molecule, in test [2], the fold higher protein concentration than nPar j 1-Par j 2 for the same degree of inhibition came to 10000 times. Besides, the reduction of allergenicity (IgE-binding) against nPar j 1-Par j 2 in test [3] was 100%. For the same molecule, the fold less allergenic than the chimeric protein Q1 in test [4] is 20 times.

B3: chimeric protein Q1 (protein)
chain: MRGSHHHHHHGILQETCGTMVRALMPCLPFVQGKEKEPSKGCCSGAKRLDGETKTGPQRVHACECIQTAMKTYSDIDGKLVSEVPKHCGIVDSKLPPIDVNMDCKTLGVVPRQPQLPVSLRHGPVTGPSDPAHKARLERPQIRVPPPAPEKAEFEEACGKVVQDIMPCLHFVKGEEKEPSKECCSGTKKLSEEVKTTEQKREACKCIVRATKGISGIKNELVAEVPKKCDIKTTLPPITADFDCSKIQSTIFRGYY
With B3, the degree of inhibition of IgE binding to P. judaica extract in test [1] came out at 50%. Moreover, the fold more protein needed than nPar j 1-Par j 2 in test [2] is 500 times.
